Experimental data: PMC5612097, “Discovery of a microbial transglutaminase enabling highly site-specific labeling of proteins” (The Journal of Biological Chemistry, 2017)
Where no end group is shown, it is not given here. The star is where a group is joined. Cbz = O=C(OCc1ccccc1)*

Columns and labels:
KalbTG = target: T1, KalbTG (Kutzneria viridogrisea, UniProt W5WHY8); assay: peptide array transamidation, Cy5-streptavidin fluorescence; assay type: biochemical; conditions: 50 uM amine donor with 5-mer Gln peptides; 100 mM Tris-HCl, pH 8, 1 mM DTT, 37 °C, 45 min
T1 construct: gene KALB_7456; E. coli; predicted signal peptide removed; N-terminal 2x SlyD (E. coli) chaperone tag with factor Xa site (cut off for some applications), N-terminal MGGGSTTAQAAAVAAPTPR, C-terminal GGGS-His8
T1 sequence (W5WHY8 entry or part of it): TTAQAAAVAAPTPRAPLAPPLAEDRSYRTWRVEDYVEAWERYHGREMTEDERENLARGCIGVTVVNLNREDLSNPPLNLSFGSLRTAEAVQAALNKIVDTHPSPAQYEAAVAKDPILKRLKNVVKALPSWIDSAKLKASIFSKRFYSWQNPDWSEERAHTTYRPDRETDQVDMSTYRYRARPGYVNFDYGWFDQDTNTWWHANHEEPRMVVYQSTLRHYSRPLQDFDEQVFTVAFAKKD

[1] = target: microbial transglutaminase (MTG) from Streptomyces mobaraensis, engineered enzyme from Zedira (Streptomyces mobaraensis) (UniProt P81453)
[2] = target: microbial transglutaminase from Kutzneria albida (KalbTG) (Kutzneria albida DSM 43870)

Km in the GLDH-coupled transglutaminase activity assay (37 °C, peptide 0-1 mM, 1 mM cadaverine as amine donor) [1] [µM]	Km in the GLDH-coupled transglutaminase activity assay (37 °C, peptide 0-1 mM, 1 mM cadaverine as amine donor) [2] [µM]	Molecule	peptide array transamidation, Cy5-streptavidin fluorescence (KalbTG)
–	–	NCCCCCNC(=O)CCCC[C@@H]1SC[C@@H]2NC(=O)N[C@@H]21 [N-(biotinyl)cadaverine]	N-(biotinyl)cadaverine (Zedira) was used as a substitute for a Lys substrate to biotinylate Gln peptides
644	2150	Cbz-GGGYRYRQGGGG	–
847	–	Cbz-GGGDYALQGGGG	–
